Experimental findings from patent US20060270591A1, “Androgen receptor coregulators” (priority 2002, published 2006) are described below.

What all share (format): cell-based
The target in one assay is T1, GR (Homo sapiens, UniProt P04150).
T1 sequence (P04150 1-777): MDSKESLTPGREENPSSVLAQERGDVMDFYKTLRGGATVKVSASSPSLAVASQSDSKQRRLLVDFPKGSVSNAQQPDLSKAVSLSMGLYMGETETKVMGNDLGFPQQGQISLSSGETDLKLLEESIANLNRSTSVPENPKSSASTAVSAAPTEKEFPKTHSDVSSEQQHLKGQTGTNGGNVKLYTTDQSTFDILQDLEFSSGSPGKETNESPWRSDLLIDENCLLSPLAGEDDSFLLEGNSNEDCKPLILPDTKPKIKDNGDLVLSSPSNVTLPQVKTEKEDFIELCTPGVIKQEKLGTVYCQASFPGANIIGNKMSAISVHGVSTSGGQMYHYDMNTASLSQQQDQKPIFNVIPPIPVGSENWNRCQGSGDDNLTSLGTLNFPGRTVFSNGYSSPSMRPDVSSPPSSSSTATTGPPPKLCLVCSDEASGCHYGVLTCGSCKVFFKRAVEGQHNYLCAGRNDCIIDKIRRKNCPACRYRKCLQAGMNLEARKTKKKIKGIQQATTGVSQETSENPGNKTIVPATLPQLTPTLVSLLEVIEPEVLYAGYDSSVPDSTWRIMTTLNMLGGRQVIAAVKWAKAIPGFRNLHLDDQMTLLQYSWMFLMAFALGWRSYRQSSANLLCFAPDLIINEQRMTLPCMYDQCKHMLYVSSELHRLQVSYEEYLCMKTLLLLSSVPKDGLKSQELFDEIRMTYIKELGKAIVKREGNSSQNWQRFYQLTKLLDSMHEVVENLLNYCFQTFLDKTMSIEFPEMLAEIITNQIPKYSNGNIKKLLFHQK
The assay can be described thus: GR transactivation with ARA70 in DU145 cells (Example 3). More on the design: expressed in transfected cells; host or cells: DU145. On the procedure:
(§1) 411. Human prostate cancer DU145 and PC-3 cells were maintained in […] (DMEM) containing penicillin (25 U/ml), streptomycin (25 μg/ml), and 5% fetal calf serum (FCS). Human LNCaP cells were maintained in RPMI containing penicillin (25 U/ml), streptomycin (25 μg/ml), and 10% FCS. Transfections were performed using the calcium phosphate precipitation method, as previously described (Dynlacht et al. (1991) Cell 66, 563-576). Briefly, 4×10^5 cells were plated on 60-mm dishes 24 hours before transfection, and the medium was changed to DMEM with 5% charcoal-dextran stripped FCS (CS-FBS) one hour before transfection. Transfection medium contained a constant amount of reporter plasmid and indicated amounts of pSG5-receptor, ARA70, or pCMX-GAL fusion construct using pSG5 as a carrier to provide equal amounts of transfected DNA. Twenty-four hours after transfection, the medium was changed again, and the cells were treated with DHT or other treatments. After another 24 hours, the cells were harvested for chloramphenicol transferase (CAT) or luciferase assays. At least three independent experiments were carried out in each case. Superfect (Qiagen) was used for transfection in LNCaP cells. The transfection conditions followed the manufacturer's protocol. […]

The subject of another assay is AR. The assay can be described thus: Immunocytofluorescence, semi-quantitative nuclear AR staining in COS-1 cells. The following applies: 10 nM DHT, p<0.0005. The procedure:
415. COS-1 cells were seeded on two-well Labtek II slides (Nalge) 24 hours before transfection. Two micrograms of DNA per 10^5 cell was transfected with the AR, with or without full length ARA70 (ARA70-FL) using FuGENE6 transfection reagent (Roche). […] Immunostaining was performed by incubation with anti-AR polyclonal antibody (NH27) or anti-ARA70 mouse monoclonal antibody (CC70), followed by incubation with either fluorescence-conjugated goat anti-rabbit or anti-mouse antibodies (ICN). The red signal represents the AR and the green signal represents ARA70.
416. Three hundred cells with normal morphologies and clear AR nuclear translocation were scored for AR staining using a fluorescence microscope. Cells were scored on a scale of one to five, with one representing the lowest AR staining intensity above the background level. The cells were then separated into two groups based on the presence or absence of ARA70.
417. The mean AR staining intensity and standard deviation were then calculated for the ARA70 negative and positive populations. Using […], a two sample t-test (assuming unequal variances) was then performed to determine if the difference in the mean AR staining intensities in the two populations was statistically significant (α=0.05).

Another assay addresses T2, PR (Homo sapiens, UniProt P06401).
T2 construct: expressed in transfected cells; host or cells: DU145, PC-3
T2 sequence (P06401 1-933): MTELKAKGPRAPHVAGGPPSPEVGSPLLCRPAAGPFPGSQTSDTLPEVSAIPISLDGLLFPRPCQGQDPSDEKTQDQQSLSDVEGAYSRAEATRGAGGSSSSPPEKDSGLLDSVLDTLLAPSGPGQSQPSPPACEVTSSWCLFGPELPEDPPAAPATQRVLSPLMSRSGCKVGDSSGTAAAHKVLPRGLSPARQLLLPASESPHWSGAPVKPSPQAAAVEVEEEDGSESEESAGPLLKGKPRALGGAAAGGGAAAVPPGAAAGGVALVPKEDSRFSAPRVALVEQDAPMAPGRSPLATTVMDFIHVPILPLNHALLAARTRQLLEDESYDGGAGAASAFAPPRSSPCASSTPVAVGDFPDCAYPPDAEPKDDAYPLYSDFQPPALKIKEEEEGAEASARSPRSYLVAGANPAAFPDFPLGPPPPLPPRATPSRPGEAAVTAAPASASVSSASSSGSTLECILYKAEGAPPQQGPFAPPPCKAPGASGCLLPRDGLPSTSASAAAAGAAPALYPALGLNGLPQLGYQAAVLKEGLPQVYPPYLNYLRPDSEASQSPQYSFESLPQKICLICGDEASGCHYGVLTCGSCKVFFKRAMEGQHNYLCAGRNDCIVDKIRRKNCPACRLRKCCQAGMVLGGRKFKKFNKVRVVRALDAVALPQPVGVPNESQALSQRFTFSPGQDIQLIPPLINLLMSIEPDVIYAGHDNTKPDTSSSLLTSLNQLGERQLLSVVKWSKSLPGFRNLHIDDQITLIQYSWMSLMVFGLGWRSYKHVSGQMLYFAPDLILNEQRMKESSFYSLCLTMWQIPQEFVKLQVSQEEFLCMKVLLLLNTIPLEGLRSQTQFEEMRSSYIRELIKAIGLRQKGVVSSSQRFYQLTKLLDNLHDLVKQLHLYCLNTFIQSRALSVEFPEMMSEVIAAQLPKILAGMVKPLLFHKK
The assay can be described thus: PR transactivation with ARA70 in DU145 cells (Example 3). The procedure: as §1

AR, sequence (P10275 with tags, fused parts or gaps DEL79-80/DUP473-473): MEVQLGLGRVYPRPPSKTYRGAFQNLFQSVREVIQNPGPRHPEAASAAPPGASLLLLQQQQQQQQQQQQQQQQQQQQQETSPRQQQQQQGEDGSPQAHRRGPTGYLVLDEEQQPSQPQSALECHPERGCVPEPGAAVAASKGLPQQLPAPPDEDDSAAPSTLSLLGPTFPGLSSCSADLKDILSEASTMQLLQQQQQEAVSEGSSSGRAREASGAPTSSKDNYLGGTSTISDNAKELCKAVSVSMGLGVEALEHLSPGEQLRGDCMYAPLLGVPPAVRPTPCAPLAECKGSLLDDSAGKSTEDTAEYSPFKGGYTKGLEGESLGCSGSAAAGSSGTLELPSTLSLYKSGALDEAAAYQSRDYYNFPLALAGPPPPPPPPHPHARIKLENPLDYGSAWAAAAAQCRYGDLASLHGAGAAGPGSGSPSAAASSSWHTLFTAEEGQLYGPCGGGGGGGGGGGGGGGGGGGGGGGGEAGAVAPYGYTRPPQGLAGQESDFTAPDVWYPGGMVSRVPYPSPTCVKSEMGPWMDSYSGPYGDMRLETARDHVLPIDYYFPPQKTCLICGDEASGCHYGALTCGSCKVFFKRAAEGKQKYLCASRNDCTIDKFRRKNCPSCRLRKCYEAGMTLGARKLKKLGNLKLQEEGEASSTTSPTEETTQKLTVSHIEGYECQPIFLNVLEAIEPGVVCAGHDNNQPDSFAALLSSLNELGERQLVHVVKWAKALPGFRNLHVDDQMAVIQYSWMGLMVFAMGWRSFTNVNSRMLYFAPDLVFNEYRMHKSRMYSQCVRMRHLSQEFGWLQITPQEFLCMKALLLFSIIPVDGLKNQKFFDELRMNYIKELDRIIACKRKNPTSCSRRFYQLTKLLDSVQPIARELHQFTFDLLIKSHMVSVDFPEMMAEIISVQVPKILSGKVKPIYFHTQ

For “ARA70: ligand-enhanced AR coregulator, full length ARA70”, the “enhancement of GR transactivation” value with GR is listed as 2-3 fold. The “nuclear AR staining intensity” value in the assay with AR is on record as “significantly enhances nuclear AR staining intensity”. Besides, the “enhancement of PR transactivation” value with PR was 2-3 fold.
